Measurements as given in article PMC2761280.
Read-outs that look alike come from different tables or passages of the source.

T1: POLGβ (his)10 (UniProt Q9UHN1 26-485)
T1 sequence: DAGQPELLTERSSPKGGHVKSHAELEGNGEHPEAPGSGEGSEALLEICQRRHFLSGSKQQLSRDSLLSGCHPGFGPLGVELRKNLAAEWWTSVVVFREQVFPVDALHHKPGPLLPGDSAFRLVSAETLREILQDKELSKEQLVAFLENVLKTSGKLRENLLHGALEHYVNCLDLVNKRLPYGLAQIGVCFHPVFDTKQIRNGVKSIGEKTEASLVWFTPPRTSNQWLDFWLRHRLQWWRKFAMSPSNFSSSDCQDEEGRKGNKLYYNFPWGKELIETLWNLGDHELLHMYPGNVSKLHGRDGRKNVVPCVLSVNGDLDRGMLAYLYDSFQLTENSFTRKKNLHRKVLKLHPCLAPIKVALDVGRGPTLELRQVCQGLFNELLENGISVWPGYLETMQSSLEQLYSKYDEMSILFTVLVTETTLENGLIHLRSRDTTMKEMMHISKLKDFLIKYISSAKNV

B1: oligonucleotide C (free ss oligo) (ssDNA)
DNA: ACCGCTATGTATTTCGTACATTACTGCCAGCCACCATGAATATTGTACGGTACCATAAATACTTGACCACCTGTAGTACATAAAAACCCAATCCACATCAAAACCCCCTCCCCATGCTTA

Experiments:
Test in all cases: EMSA
[1] = biological target: T1, POLGβ (his)10
[2] = biological target: T2, POLGα (UniProt P54098 26-1239)
T2 sequence (P54098 26-1239): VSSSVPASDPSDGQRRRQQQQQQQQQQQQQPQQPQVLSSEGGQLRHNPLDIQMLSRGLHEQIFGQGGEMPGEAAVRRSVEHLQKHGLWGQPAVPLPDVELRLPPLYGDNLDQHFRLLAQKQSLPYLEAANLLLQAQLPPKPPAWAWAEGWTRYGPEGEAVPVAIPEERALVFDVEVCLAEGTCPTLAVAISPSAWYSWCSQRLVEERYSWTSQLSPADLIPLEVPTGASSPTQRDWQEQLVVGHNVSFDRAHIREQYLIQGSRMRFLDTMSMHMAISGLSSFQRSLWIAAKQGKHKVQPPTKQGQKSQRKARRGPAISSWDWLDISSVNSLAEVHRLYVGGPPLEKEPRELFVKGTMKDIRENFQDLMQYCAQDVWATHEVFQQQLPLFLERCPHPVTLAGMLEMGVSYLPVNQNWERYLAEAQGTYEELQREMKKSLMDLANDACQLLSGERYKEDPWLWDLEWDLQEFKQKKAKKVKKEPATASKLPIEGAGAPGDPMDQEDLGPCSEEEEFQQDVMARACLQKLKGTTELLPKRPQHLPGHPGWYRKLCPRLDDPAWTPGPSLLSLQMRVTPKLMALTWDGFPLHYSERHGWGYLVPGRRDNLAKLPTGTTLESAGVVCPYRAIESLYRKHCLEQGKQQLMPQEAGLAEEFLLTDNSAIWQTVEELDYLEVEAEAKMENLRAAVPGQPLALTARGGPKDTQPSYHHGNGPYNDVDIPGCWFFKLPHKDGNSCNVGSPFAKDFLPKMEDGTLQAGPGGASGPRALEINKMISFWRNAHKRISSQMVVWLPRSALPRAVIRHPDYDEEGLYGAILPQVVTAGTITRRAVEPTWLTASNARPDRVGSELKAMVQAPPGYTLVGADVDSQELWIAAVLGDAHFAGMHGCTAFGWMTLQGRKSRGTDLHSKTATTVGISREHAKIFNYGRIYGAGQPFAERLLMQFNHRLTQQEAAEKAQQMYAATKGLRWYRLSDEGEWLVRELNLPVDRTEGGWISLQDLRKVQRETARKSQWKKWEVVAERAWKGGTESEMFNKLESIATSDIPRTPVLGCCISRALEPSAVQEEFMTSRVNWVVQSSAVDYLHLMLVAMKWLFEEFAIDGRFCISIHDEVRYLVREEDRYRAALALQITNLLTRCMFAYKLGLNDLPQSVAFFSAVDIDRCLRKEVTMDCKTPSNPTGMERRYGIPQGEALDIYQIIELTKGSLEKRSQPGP

[3] = biological target: T2, POLGα; remark: listed apart in the source
[4] = biological target: T1, POLGβ (his)10; remark: listed apart in the source

Row | Binder | binding result [1] | Kd [2] | binding result [3] | binding result [4]
1 | CCGGTCGTACGGAAAACCTGTATTTTCAGGGCT (ssDNA) [33-mer ss oligonucleotide] | no binding | 92 nM |  | 
2 | B1 |  |  | binds | no binding
